Reference: the RNAGym collection of RNA variant scans (doi:10.1073/pnas.2313332121)
Variants at the floor of the assay were thinned out.

B1: TPR 5TU (parent)
chain: GGAUCUUCUCGAUCUAACAAAAAAGACAAAUCUGCCACAAAGCUUGAGAGCAUCUUCGGAUGCAGAGGCGGCAGCCUUCGGUGGCGCGAUAGCGCCAACGUUCUCAACUAUGACACGCAAAACGCGUGCUCCGUUGAAUGGAGUUUAUCAUG

Variants of: B1
Assay: polymerase ribozyme fitness, log enrichment relative to wild type (log ratio); higher = more active; in vitro selection for triplet polymerase activity
Method in brief: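 Frozen incubation at −7 °C formed the core of a single, triplicate in vitro selection round applied to PCR-built, transcribed mutant libraries of each subunit of a heterodimeric triplet polymerase ribozyme. Extended constructs were gel-excised, captured with streptavidin beads and amplified by RT-PCR, and input and output libraries were Illumina-sequenced with a filter of ≥10 input reads and ≥1 read per output. Fitness is the logarithm of genotype enrichment relative to wild-type enrichment, with inverse-variance-weighted replicate averaging, and the logarithm is base 2.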

Row | Variant | polymerase ribozyme fitness (log ratio)
1 | GGAUCUUCUCGAUCUAACAAAAAAGACAUAUCUGCCACAAAGCUUGAGAGCAUCUUCGGAUGCAGAGGCGGCAGCCUUCGGUGGCGCGAUACCGUCAACGUUCUCCACUAUGAUACGCAAAACGCGUUCUCCGUUGAGUGGAGUUUAUCAUG [A29U G92C C95U A106C C114U G128U A138G] | ≤ -4.2
2 | GGAUCUUCUCGAUCUAACAAAAAAGACAUAUCUGCCACAAAGCUUGAGAGCAUCUUCGGAUGCAGAGACGGCAGCCUUCGAUGGCGCGAUAGCGCCAACGUUCUCAACUAUGACACGCAAAACGCGUGCUCCGUUGAAUGGAGUUUAUCAUG [A29U G68A G81A] | ≤ -4.2
3 | GGAUCUUCUCGAUCUAACAAAAAAGACAAGUCUGCCUCAAAGCUUGAGAACAUCUUCGGAUGCAGAGGCGGCAGCCUUCGGUCGCGCGAUAGCGCCAACGUUCUCAACUAUGACACGCAAAACGCGUGCUCCGUUGAAUGGAGUUUAUCAUG [A30G A37U G50A G83C] | ≤ -4.2
4 | GGAUCUUCUCGAUCUAACAAAAAAGACAUAUCUGCCACAAAGCUUGAGAGCAUCUUCGGAUGCAGAGGCGGCAGCCUUCGGUGGCGCGAGAGCGUCAACGUUCUCAACUAUGACGCUCAUAACGCGUGCUCCGUUGAAUGGAGUUUAUCAUG [A29U U90G C95U A115G G117U A120U] | ≤ -4.2
5 | GGAUCUUCUCGAUCUAACAAAAAAGACAACUCUGCCACAAAGCUUGAGAGCAUCUUCGGAUGCAGAGGCGGCAGCCUUCGGUCGCGCGAUAGCGCCAACGGUCUCAACUAUGACACGCAAUACGCGUGCUCCGUUGAAUGGAGUUUAUCAUG [A30C G83C U101G A121U] | ≤ -4.2
6 | GGAUCUUCUCGAUCUAACAAAAAAGACAACUCUGCCACAAAGCUUGAGAGCAUCUAGGGAUGCAGAGGCGGCAGCCUUCGGUGGCGUGAUAGCGCCAACGUGCUCAACUAUGACACGCAAAACGCGUGCUCCGUUGAAUGGACUUUAUCAUG [A30C U56A C57G C87U U102G G143C] | ≤ -4.2
7 | GGAUCUUCUCGAUCUAACAAAAAAGACAACACUGCCACAAAGCUUGAGAGCAUCUUCGGAUGCAGAGGCGGCAGACUUAGGUGGCGCGAUAGCGCCAACGUUCUCAACUAUGACACGCAAAACGCGUGCUCCGUUGAAUGGAGAUUAUCAUG [A30C U31A C75A C79A U144A] | ≤ -4.2
8 | GGAUCUUCUCGAUCUAACAAAAAAGACAACUCUGCCACAAAGCUUGAGAGUAUCUUCUGAUGCAGAGGCGGCAGCCUUCAGUGGCGCGAUAGCGCCAACGUUCUCAACUAUGACACGCAAAACGCGUGCUCCGUUGAAUGGAGUUUAUCAUG [A30C C51U G58U G80A] | ≤ -4.2
9 | GGAUCUUCUCGAUCUAACAAAAAAGACAUAUCUGCCACAAAGCUUGAGAGCAUCUUCGGAUGCAGAGGCGGCAGCCAUCGGUGGCGCGAUAGCGGCAACGUUCUCAACUAUGACACGCAAAACGCGUGCUCCGUUGAAUGGAGUUUAUCAUG [A29U U77A C95G] | ≤ -4.2
10 | GGAUCUUCUCGAUCUAACAAAAAAGACAACUCUGCCACAAAGCUUGAGAGCAUCUUCGGAUGCAGAGGCGGCAGCCUUCGGUGGCGCGAUAGCGCCAACGUUCUUAACUAUGACACGCAAAACGCGUGCUCCGUUGAAUGGAGUUUAUCAUG [A30C C105U] | ≤ -4.2
11 | GGAUCUUCUCGAUCUAACAAAAAAGACAACUCUGCAACAAAGCUUGAGAGCGUCUUCGGAUGCAGAGGCGGCAGCCUUCGGUGGCGCGAUAGCGCCAACGUUCUCAAAUAUGACACGCAAAACGCGUGCUCCGUUGAAUGGAGUUUAUCAUA [A30C C36A A52G C108A G152A] | ≤ -4.2
12 | GGAUCUUCUCGAUCUAACAAAAAAGACAACUCUGCCACAAAGCUUGAGAGCAUCUUCGGAUGCAGAGGCGGCAGGCUUCGUUGGCGUGAUAGCGCCAACGUUCUCAACUAUGACACGCAUAACGCGUGCUCCGUUGAAUGGAGUUUAUCAUG [A30C C75G G81U C87U A120U] | -4.16
13 | GGAUCUUCUCGAUCUAACAAAAAAGACAACUCUGCCACAAAGCUUGAGACCAUCUUCGGAUGCAAAGGCGGCAGCCUUCGGUGACGCGAUAGCGCCAACGUUCUCAACGAUGACACGCAAAACGCGUGCUCCGUUGAAUGGUGUUUAUCAUG [A30C G50C G65A G84A U109G A142U] | ≤ -4.2
14 | GGAUCUUCUCGAUCUAACAAAAAAGACAACUCUGCCACAAAGCUUGAGAGCAUCUUCGGAUGCAGAGGCGGCAGCCUUCGGUGGCGCGAUAGCGCCAACGUUCUCAACUAUGACACGCAAAACGCGUGCUCCGUUGAAUGGAGUUUAUCAUG [A30C] | -3.12
15 | GGAUCUUCUCGAUCUAACAAAAAAGACAAGUCUGCCACAAAGCUUGAGAGCAUCUUCGGAUGCAGAGGCGGCAGCCUUCGGUGGCGCGAUAGCGCCAACGUUCUCAACUAUGACACGCAAAACGCGUGCUCCGUUGAAUGGAGUUUAUCAUG [A30G] | -2.24
16 | GGAUCUUCUCGAUCUAACAAAAAAGACAUAUCUGCCACAAAGCUUGAGAGCAUCUUCGGAUGCAGAGGCGGCAGCCUUCGGUGGCGCGAUAGCGCCAACGUUCUCAACUAUGACACGCAAAACUCGUGCUCCGUUGAAUGGAGUUUAUCAUG [A29U G124U] | ≤ -4.2
17 | GGAUCUUCUCGAUCUAACAAAAAAGACAACUCUGCCACAAAGCUUGAGAGCAUCUUCGGAUGCAGAGGCGUCAGCCUUCGGUGGCGCGAUAGCGCCAGCGUUGUCAACUAUGACACGCAAAACGCGUGCUCCGUUGAAUGGAGUUUAUCAUG [A30C G71U A98G C103G] | ≤ -4.2
18 | GGAUCUUCUCGAUCUAACAAAAAAGACAACUCUGCCACAAAGCUUGAGAGCAUCUUCGGAUGCAGAGGGGGCAGCAUUCGGUGGCGCGAUAGCACCAACGUUCUCAACUAUGACACGCAAAACGCGUGCUCCGUUGAAUAGAGUUUAUCAUG [A30C C69G C76A G94A G140A] | ≤ -4.2
19 | GGAUCUUCUCGAUCUAACAAAAAAGACAUAUCUGCCACAAAGCUUGAGAGCAUCUUCGGAAGCAGAAGCGGCAGCCUUCGGUGGCGCGAUAGCGCUAACGUUCUCAACUAUGACACGCAAAACGCGUGCUCCGUUGAAUGGAGUUUAUCAUG [A29U U61A G67A C96U] | ≤ -4.2
